Results reported in the domain aggregation screens of Martell et al. (2025).

test: soluble fraction after stress (log2 fold change); higher = more stays soluble; pooled small domains, quantitative proteomics; conditions: stress: 50 degC
Summary of the method: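 After stress at 50°C, the amount of each protein still soluble was measured. This was done on pooled custom libraries of small protein domains, using high-throughput quantitative proteomics. The figure given is a base-two log fold change and stands for aggregation propensity, with higher values meaning more protein stays in solution.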

Row | Sequence | soluble fraction (log2)
1 | HMKKPIYLTIANDIEKKIFNNDYPKNERLPSERNLAEEYGVTRMTIRNSIEYLVSKGLLEKRLGSGNYVKR | -0.646
2 | HMGEDPYQMLGLTRQASDEEVRLAWRKLMRENHPDSLASRGVPQEFVKRATEQVAQINAAWDRIKRERG | 0.0386
3 | HMLTLTNREKQVLVYIAKGHQVAQIAYELKLSGHTINGYIKTIYQKLHISSRAEAALLAQQYGL | -3.56
4 | HMRPTAWDQISDWLDRHGSIANADVVRIAGLDTLKASKLLTTWREQGLLEPLPGRGKRNMAYVRAI | -0.554
5 | HMALPASLSPREREIVSLISQGKTNSEIASLLYISVPTVKTHISNIFQKTGVSNRTSLLNRLRMS | -0.164
6 | HMTYSAFITARNKRIAEEYSVLLDSLNISNNVIYRLGSWVVEVNVSDHSRAIDEIYSYERSGRIDKV | -0.498
7 | HMLPTLSLSVKIYKGEGDIALDLEEMVKAFDQLNFGSYPFSEKGVHGTNIVIRGNDKKHMEEAEDKVRSLT | -0.725
8 | HMDYLSEFITDKVVRADGYSIRKGELSNEFKQWFITNVGTKNPKPKEIHDYMDRKFGKNKNGIWKNVKIKL | -0.38
9 | HMSDLGEIEKIVDEVLAENITKVQEYKDGKKGLMGMFMGQIMKKSGGKADPKIANQLLTEKL | 0.114
10 | HMGEVPVETKDGIKVHVHTVDKSQTAYGISRLYNITLNELYESNPEAKLELSIGQKLYFPVK | -0.154
11 | HMLHPLLWAVDEPTPVTVRTRPEYVPDVVRWLMQPESQREHDGVVDLRYTVTHRAAFRSRIYVLGTRVTIP | -0.112
12 | HMSVKIELNENEQAIFTAVQKVNEAVLPELRAQFSDMSNKAWDNSVKMLTKNNLLKVSKEGEILYIRM | -0.567
13 | HMTITIGNSDGGYMKMGADGFEVRFSGSDGGNHYAKMYYNNDGWARLTLGSYGEEKARIDSDGMIQTR | -0.113
14 | HMKEHDTLALRLTAILRKLNDGEKLVPRELAEEFNVGIRTIQRDLTERLSFLDLEKTNGAYSLPTRNL | -0.428
15 | HMNVKQALLELMQRKPELTGSAIARAIGYSPAVISQYLKDGYPGDVVKLTTLIGDFIRRIDEKERS | -0.182
16 | HMKTQFGTIVKQLRERKGMDQKQLGEIVGVSDKTVSSWEINRTEPKMGIVQQLADYFGVSTDYLIKG | 0.295
17 | HMSHGYVELKAENNDALISALENHTWFENIKLDPETNLVKAILTKPIEAENLNKMLFEKGIILSHLVKRK | -0.0853
18 | HMPGTPADQVAELQTKVGTETKTGDMITQDDVKLLQTALDPLAKMNDRIQAAKILESKGIVTSDGNLRT | 0.124
19 | HMTMNLIEIGHVVGARRAELGLTQAQLAHLSGLSRQTVVGLEKGTLSDLGVNRVGQVMAVLGLDS | -0.51
20 | HMNDFVTVPDLQGIFYSEAIKKIDKMGLKEGSIQFVNQDKFLPNTVLNQNPKEGTKVSQDSPINLIIS | 0.0352
21 | HMITEDQVIARIGLLSPAEKSLLKDKLERFRRLTLSEQQHLREFHSALDNHDKRTDLLNVLRKYNDWVNQL | -1.67
22 | HMNTAIPIAIDQLRIGMYIQLGLNWMSHPFPVSSFRIASESQIEILRGLGLAEVRYVPAKSDPVP | -2.88
23 | HMSPIPLPVERAIHKLGSDISLARRRRHISQASLAERMGASLSTVRRMEKGDVRVPIHFFARALHVFG | -0.00115
24 | HMKGDYWIIDLDKNYQYAIISEPDRQYLWILSRSPNMDTQTLETLKEKIRSKGFDLTYLKQTL | -0.844
25 | HMDTLHGRILEEFSRKIVDGTWPPGFSLPKETELADQYGVSRMTMNKVLTRLASDGFVIRRKRSGTVVAQP | -1.21
26 | HMSDIDIDVENDRAALAIAGGKLNHLVGARGEVLDALQELTRLAVQTSLGERSRLMLDIDNFRSD | -0.00224
27 | HMDTVEALTEQLKKLDKRGEGQIPAPEFKQYMMNMGGKMTAEELDEMMKVADPGKEGVVNIAEFADAL | 0.35
28 | HMQDTYQVKLLTNLNIRKSPNGTIVQKGGAKKGIIYTIVETSGTWGRLKSNAGWISVSDKYVTK | -3.43

Row | Sequence | soluble fraction (log2)
29 | HMPPSVAETLKRLRRHKSLSLEELAQMSGVSRSMLSQIERDATNPTVATLWRITAALGVSIDEVLGV | -1.87
30 | HMEAFELTPREKQVLQLLVQGKAYKIIAADLDITYDTVRAHIKKIYEKLHVGSMTEAVAKAIQHKL | -0.882
31 | HMPSLSPDETVVVDALRQQNDMQINMISVKTNLPIARLSAILFEMELKGVLKPLAGGVYHLL | -0.316
32 | HMGRQTITLPDFSGQDLEQVKARLTEWGLVPEEKSVFSDSVPLGSVVRTVPAEGDEVSVGDTVTVYKSLGR | 0.0656
33 | HMSQVLVRINQDLNIRSGPGAQYDIIAVYRSGAIASVIGTYNNWYKVNFELDSKSYTGWINGTFTSR | -1.93
34 | HMVDKNDLTAIDGIGPFLEKKLNDVGVFTYADIAGWDAAKIEEITQQISFFEGRIEKDDWVGQAQKLIDDQ | -0.157
35 | HMTQSPLHWSHRPIDLSELLTYLDRDGAFVYASGHKAPFTEVVRGFEHLLNIRLGDPRDVKRSVLQR | -0.369
36 | HMNTPAENFDKAVEKYKSTNSATEKDAAFKVIEDEWIKLSDEEKKERQDEYDSIFESEGDRV | 0.126
37 | HMKRDNETRRRIVAAAEELFRAKGLDGVNMRELAEMAGVNKGLLHYYFKTKQALFREILVGQMAL | -1.05
38 | HMGIAWGMLREQVAASDVSYRSEVLDILDRTPVWIYDAEGKIVDGRKKRLMDLQGGEPYRHMLEHFFPDLR | -2.48
39 | HMAAADLNMRAKLADLGGMSYGELSIWEKTHGMEFAAWEHEWEKLNSGTQADGLKFPKHLPEGFPT | 0.0468
40 | HMDLAENWKDDADITLAEYNAIRSRYKPGKLHRDTEFMIARDMLIRPETVLAIAHSRFSNVHTHPV | -0.945
41 | HMNNTVLSSVKSINMFLDANGGDAGQAFRIYNNTNPDSNPTESTYIFKVAEDGNTFVKGYLNLNGTTL | 0.014
42 | HMFYQLTENQRRILSSLEQNPRVSAAHLAEEIGISSRKVENNLKKLKEIGLLQRHGSPRKGYWSINQGW | -0.623
43 | HMAHILDLMELKQILRLHMDGLSNRRISDTLGIHRNTINSYVSQFKASKHGIEELLKLSDYELAQLFP | -2.26
44 | HMNLESNQYVIDISDSQVINKDEFETILNQNKTKDIVIKSNNNVTFTFEKGSMIGAEGKDNYDFSSQVNY | -0.0368
45 | HMNVLLGISELSHATGVTPAQLRYWVSQGYIKNYGSNKKNKFSLETVFMVRSIKIFQNQGYTLSASAKRAA | 0.0163
46 | HMRTAFPQLTERELEILDLIAAGRNNAQIASALYLAPKTVRNNVSNILAKLQATDRAEAIIRARDAGLGG | -0.0599
47 | HMEQMSPYPNPSKGKIQFHNQEPMDIKVFNSLGQIVFEQRILSRAILDLSRLSPGQYIVQAGEQKNIWIK | -0.699
48 | HMAVEQLKSQIGGFLKANREQSFSAQNMADGLRMNSAAGYQDVVNAMNALVRDGEAVEKDGQFSYNVN | 0.15
49 | HMGNFQNIFRKLRTSSNLTQNAIAEKLGISRSTIGMYETGAREPDFETLEKIADYFNVDTDFLLGRTNQTT | -0.106
50 | HMDIPTSAEAVRAYLASGFIKGIGEATARMLVDKFGAETLEIIKTEPMKLTKISGIGPKKAKMIHESYLEK | 0.177
51 | HMLSYNINEESKSSIMNVNVLKNNFASIDVEKLQNIIFTTFKKYNYYLNDFSSMNLLLHLLIIVDREL | 0.337
52 | HMSLSVEESYKLLDISPSAGDEEITKKFRLLALKYHPDKNRSKIEWANNIMSRLNQAYSVIMSSRFESNAE | -0.476
53 | HMAPSIPSGADIRAAREAAGINLRDFARIVDGPGIAIWSRYETGTPIRVKSISPEVWQKVRDFISQHG | -0.826
54 | HMDGVEVVTKPAGAQIEFAGKSYGPSPVHIPGLVAGSQLILRLPGFQAATVRLRTAPDKSKALEYTLQPA | -0.0828
55 | HMSKYLAFTVKKNDELLPFIEKALNGISHTKAKAILANGGAMVNKNTITQYNYPLTPGMTVEISRH | 0.131
